Several values for one entry are separate records, joined by “and”; a condition that tells them apart may be missing. Equal values may be shown once.
T1: purified recombinant hFA-1 protein (hDlk-1 extracellular region) (human, UniProt P80370 24-303)
T1 construct: also called human FA1; FA-1 region of hDlk-1; not shown: C-terminal Myc tag and His tag from the pcDNA4/Myc-His vector
T1 sequence: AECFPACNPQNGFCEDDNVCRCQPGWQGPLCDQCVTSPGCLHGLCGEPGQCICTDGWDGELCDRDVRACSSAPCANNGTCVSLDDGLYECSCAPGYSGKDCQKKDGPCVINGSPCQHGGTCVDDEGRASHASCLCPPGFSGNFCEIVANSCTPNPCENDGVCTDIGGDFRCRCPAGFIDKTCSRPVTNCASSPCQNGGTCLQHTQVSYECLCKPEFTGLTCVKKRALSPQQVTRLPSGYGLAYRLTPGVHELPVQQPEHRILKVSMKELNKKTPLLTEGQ

T2: hDlk-1 EGF-like motif deletion mutant EGF (5-6) expressed on COS-7 cells (human, UniProt P80370 170-245)
T2 construct: also called hDlk-1 (EGF 5-6)-pME18-CHFX
T2 sequence: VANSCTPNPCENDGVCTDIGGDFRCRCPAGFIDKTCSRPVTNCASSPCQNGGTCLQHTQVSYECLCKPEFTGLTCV

T3: hDlk-1 EGF-like motif deletion mutant EGF (4-6) expressed on COS-7 cells (human, UniProt P80370 131-244)
T3 construct: also called hdlk-EGF (4-6)/pME18S-CFHX
T3 sequence: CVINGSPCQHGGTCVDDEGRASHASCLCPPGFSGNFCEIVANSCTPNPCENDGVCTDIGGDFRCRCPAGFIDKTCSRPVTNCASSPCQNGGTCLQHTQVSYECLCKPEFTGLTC


What was measured:
[1] = molecular target: T1, purified recombinant hFA-1 protein …; assay: ELISA, antibody dilution series on immobilised hFA-1
[2] = molecular target: T2, hDlk-1 EGF-like motif deletion mutant …; assay: FACS of transfected COS-7 cells
[3] = molecular target: T3, hDlk-1 EGF-like motif deletion mutant …; assay: FACS of transfected COS-7 cells
[4] = molecular target: T1, purified recombinant hFA-1 protein …; assay: ELISA method (Djavadi-Ohaniance): antibody 0.5 nM equilibrated with hFA-1 in solution, then added to immobilised hFA-1

| Binder | EC50 [1] | binding result [2] | binding result [3] | Kd [4] |
| --- | --- | --- | --- | --- |
| mouse anti-hDlk-1 monoclonal antibody clone DI-2-14 (antibody, V domains shown, also called mouse DI-2-14 antibody; clone DI-2-14 (mouse IgG1)) VH: EVQLQQSGAELVKPGASVKLSCTASGFNIRDTYIHWVKQRPEQGLEWIGRIDPPNGNLKYDPKFQGKATITADTSSNTAYLQFSSLTSEDTAVYYCARSDGYSFAYWGQGTLVTVSA VL: DIVMTQAAPSVPVTPGESVSISCRSSKSLLHSNGNTYLYWFLQRPGQSPQLLIYRMSNLASGVPDRFSGSGSGTAFTLRISRVEAEDVGVYYCMQHVEYPFTFGSGTKLEIK | < 0.01 µg/mL | no binding | no binding | 4.02 nM and 9.26 nM |
| humanized anti-hDlk-1 monoclonal antibody HuDI-2-14-1 (antibody, V domains shown, also called HuDI-2-14-1 IgG1/κ) VH: QVQLVQSGAEVKKPGSSVKVSCKASGFNIRDTYIHWVRQAPGQGLEWIGRIDPPNGNLKYDPKFQGKATITADTSTSTAYMEFSSLRSEDTAVYYCARSDGYSFAYWGQGTLVTVSS VL: DIVMTQSPLSLPVTPGEPASISCRSSKSLLHSNGNTYLYWFLQKPGQSPQLLIYRMSNLASGVPDRFSGSGSGTAFTLKISRVEAEDVGVYYCMQHVEYPFTFGQGTKVEIK | < 0.01 µg/mL |  |  | 2.8 nM |
| mouse-human chimeric DI-2-14 antibody (ChDI-2-14) (antibody, V domains shown, also called DI-2-14 IgG1/κ) VH: EVQLQQSGAELVKPGASVKLSCTASGFNIRDTYIHWVKQRPEQGLEWIGRIDPPNGNLKYDPKFQGKATITADTSSNTAYLQFSSLTSEDTAVYYCARSDGYSFAYWGQGTLVTVSA VL: DIVMTQAAPSVPVTPGESVSISCRSSKSLLHSNGNTYLYWFLQRPGQSPQLLIYRMSNLASGVPDRFSGSGSGTAFTLRISRVEAEDVGVYYCMQHVEYPFTFGSGTKLEIK | < 0.01 µg/mL |  |  | 3.4 nM |
| humanized anti-hDlk-1 monoclonal antibody HuDI-2-14-2 (antibody, V domains shown, also called HuDI-2-14-2 IgG1/κ) VH: QVQLVQSGAEVKKPGSSVKVSCKASGFNIRDTYIHWVRQAPGQGLEWIGRIDPPNGNLKYDPKFQGKATITADTSTSTAYMELSSLRSEDTAVYYCARSDGYSFAYWGQGTLVTVSS VL: DIVMTQSPLSLPVTPGEPASISCRSSKSLLHSNGNTYLYWFLQKPGQSPQLLIYRMSNLASGVPDRFSGSGSGTAFTLKISRVEAEDVGVYYCMQHVEYPFTFGQGTKVEIK | < 0.01 µg/mL |  |  | 3.1 nM |

Reference: patent US20090299038A1 (LIVTECH, published 2009)
